The data set concerns the molecule itself. As to the kind of experiment: native gel or EMSA. A general note: Mobility shift assays separate free from complexed probe on a gel.

B1: phosphorylated TBK1 (Native-PAGE of Supplementary Fig. S8a) (enzyme, UniProt Q9WUN2 1-729, looked up)
chain: MQSTSNHLWLLSDILGQGATANVFRGRHKKTGDLYAVKVFNNISFLRPVDVQMREFEVLKKLNHKNIVKLFAIEEETTTRHKVLIMEFCPCGSLYTVLEEPSNAYGLPESEFLIVLRDVVGGMNHLRENGIVHRDIKPGNIMRVIGEDGQSVYKLTDFGAARELEDDEQFVSLYGTEEYLHPDMYERAVLRKDHQKKYGATVDLWSVGVTFYHAATGSLPFRPFEGPRRNKEVMYKIITGKPSGAISGVQKAENGPIDWSGDMPLSCSLSQGLQALLTPVLANILEADQEKCWGFDQFFAETSDVLHRMVIHVFSLQHMTAHKIYIHSYNTAAVFHELVYKQTKIVSSNQELIYEGRRLVLELGRLAQHFPKTTEENPIFVTSREQLNTVGLRYEKISLPKIHPRYDLDGDASMAKAVTGVVCYACRTASTLLLYQELMRKGVRWLVELVKDDYNETVHKKTEVVITLDFCIRNIEKTVKVYEKLMKVNLEAAELGEISDIHTKLLRLSSSQGTIESSLQDISSRLSPGGLLADTWAHQEGTHPRDRNVEKLQVLLNCITEIYYQFKKDKAERRLAYNEEQIHKFDKQKLYYHATKAMSHFSEECVRKYEAFKDKSEEWMRKMLHLRKQLLSLTNQCFDIEEEVSKYQDYTNELQETLPQKMLAASGGVKHAMAPIYPSSNTLVEMTLGMKKLKEEMEGVVKELAENNHILERFGSLTMDGGLRNVDCL
modifications: phosphorylated (detected with the anti-phosphorylated TBK1 antibody)
notes: probably endogenous mouse TBK1
A word on the stoichiometry N: it is a count of units in the complex or per binding partner. With B1, the “stoichiometry N” value came out at 2.

For the origin of these results see publication PMC10663505 (Nature Communications, 2023).
